Measured values taken from patent US20260116991A1.

Columns and labels:
[1] = target: monkey GPC3-His protein (monkey); assay: ELISA, monkey GPC3-His coated; antibody 0.004 nM
[2] = target: monkey GPC3-His protein (monkey); assay: ELISA, monkey GPC3-His coated; antibody 0.11 nM
[3] = target: monkey GPC3-His protein (monkey); assay: ELISA, monkey GPC3-His coated; antibody 0.02 nM
[4] = target: monkey GPC3-His protein (monkey); assay: ELISA, monkey GPC3-His coated; antibody 66.66 nM
[5] = target: monkey GPC3-His protein (monkey); assay: ELISA, monkey GPC3-His coated; antibody 2.67 nM
[6] = target: monkey GPC3-His protein (monkey); assay: ELISA, monkey GPC3-His coated; antibody 13.33 nM
[7] = target: monkey GPC3-His protein (monkey); assay: ELISA, monkey GPC3-His coated; antibody 0.53 nM
[8] = target: monkey GPC3 on HEK293T-monkey GPC3 cells (monkey); assay: FACS on HEK293T-monkey GPC3 cells
[9] = target: monkey GPC3-His protein (monkey); assay: ELISA, monkey GPC3-His coated; antibody 0.0008 nM

OD450 nm [1] | OD450 nm [2] | OD450 nm [3] | OD450 nm [4] | OD450 nm [5] | OD450 nm [6] | OD450 nm [7] | EC50 [8] | Max MFI [8] | OD450 nm [9] | Binder
0.413 | 2.16 | 1.22 | 2.51 | 2.57 | 2.44 | 2.58 | 1.32 nM | 29600 MFI | 0.175 | hAb003LH2L1 (antibody, human IgG1, V domains shown) VH: EVQLVQSGAEVKKPGSSVKVSCKASGYRFTDYEMHWVRQAPGQGLEWMGTIDPETGNTAYTQKFMDRVTITADKSTSTAYMELSSLRSEDTAVYYCTRGYSFTYWGQGTLVTVSS VL: DIVMTQTPLSLPVTPGEPASISCRSSQNIVHSNGNTYLQWYLQKPGQSPQLLIFKVSNRFSGVPDRFSGSGSGTDFTLKISRVEAEDVGVYYCFQGSHVPFTFGQGTKLEIK
0.432 | 2.1 | 1.17 | 2.53 | 2.4 | 2.4 | 2.5 | 1.28 nM | 31300 MFI | 0.165 | hAb003LH3L1b (antibody, human IgG1, V domains shown) VH: EVQLVQSGAEVKKPGSSVKVSCKASGYRFTDYEMHWVRQAPGQGLEWMGTIDPETGNTAYTQKFMDRVTLTADKSTSTAYMELSSLRSEDTAVYYCTRGYSFTYWGQGTLVTVSS VL: DIVMTQTPLSLPVTPGEPASISCRSSQNIVHSNRNTYLQWYLQKPGQSPQLLIFKVSNRFSGVPDRFSGSGSGTDFTLKISRVEAEDVGVYYCFQGSHVPFTFGQGTKLEIK
0.202 | 1.59 | 0.633 | 2.39 | 2.38 | 2.3 | 2.21 | 3.27 nM | 24500 MFI | 0.089 | hAb003LH3L1a (antibody, human IgG1, V domains shown) VH: EVQLVQSGAEVKKPGSSVKVSCKASGYRFTDYEMHWVRQAPGQGLEWMGTIDPETGNTAYTQKFMDRVTLTADKSTSTAYMELSSLRSEDTAVYYCTRGYSFTYWGQGTLVTVSS VL: DIVMTQTPLSLPVTPGEPASISCRSSQNIVHSDGNTYLQWYLQKPGQSPQLLIFKVSNRFSGVPDRFSGSGSGTDFTLKISRVEAEDVGVYYCFQGSHVPFTFGQGTKLEIK
0.16 | 1.37 | 0.475 | 2.23 | 2.17 | 2.34 | 2.12 | 3.09 nM | 23200 MFI | 0.15 | hAb003LH2L1a (antibody, human IgG1, V domains shown) VH: EVQLVQSGAEVKKPGSSVKVSCKASGYRFTDYEMHWVRQAPGQGLEWMGTIDPETGNTAYTQKFMDRVTITADKSTSTAYMELSSLRSEDTAVYYCTRGYSFTYWGQGTLVTVSS VL: DIVMTQTPLSLPVTPGEPASISCRSSQNIVHSDGNTYLQWYLQKPGQSPQLLIFKVSNRFSGVPDRFSGSGSGTDFTLKISRVEAEDVGVYYCFQGSHVPFTFGQGTKLEIK
0.357 | 1.85 | 0.963 | 2.53 | 2.36 | 2.36 | 2.22 | 1.58 nM | 30900 MFI | 0.16 | hAb003LH3L1 (antibody, human IgG1, V domains shown) VH: EVQLVQSGAEVKKPGSSVKVSCKASGYRFTDYEMHWVRQAPGQGLEWMGTIDPETGNTAYTQKFMDRVTLTADKSTSTAYMELSSLRSEDTAVYYCTRGYSFTYWGQGTLVTVSS VL: DIVMTQTPLSLPVTPGEPASISCRSSQNIVHSNGNTYLQWYLQKPGQSPQLLIFKVSNRFSGVPDRFSGSGSGTDFTLKISRVEAEDVGVYYCFQGSHVPFTFGQGTKLEIK
